Results on one molecule are retold here after article PMC11249846 (Protein Science : A Publication of the Protein Society, 2024).

The target in this assay is Hsc70‐T204A (human, UniProt P11142 1-646, T204A). Nature of the assay: NMR titration.
Chain of Hsc70‐T204A (P11142 whole entry T204A): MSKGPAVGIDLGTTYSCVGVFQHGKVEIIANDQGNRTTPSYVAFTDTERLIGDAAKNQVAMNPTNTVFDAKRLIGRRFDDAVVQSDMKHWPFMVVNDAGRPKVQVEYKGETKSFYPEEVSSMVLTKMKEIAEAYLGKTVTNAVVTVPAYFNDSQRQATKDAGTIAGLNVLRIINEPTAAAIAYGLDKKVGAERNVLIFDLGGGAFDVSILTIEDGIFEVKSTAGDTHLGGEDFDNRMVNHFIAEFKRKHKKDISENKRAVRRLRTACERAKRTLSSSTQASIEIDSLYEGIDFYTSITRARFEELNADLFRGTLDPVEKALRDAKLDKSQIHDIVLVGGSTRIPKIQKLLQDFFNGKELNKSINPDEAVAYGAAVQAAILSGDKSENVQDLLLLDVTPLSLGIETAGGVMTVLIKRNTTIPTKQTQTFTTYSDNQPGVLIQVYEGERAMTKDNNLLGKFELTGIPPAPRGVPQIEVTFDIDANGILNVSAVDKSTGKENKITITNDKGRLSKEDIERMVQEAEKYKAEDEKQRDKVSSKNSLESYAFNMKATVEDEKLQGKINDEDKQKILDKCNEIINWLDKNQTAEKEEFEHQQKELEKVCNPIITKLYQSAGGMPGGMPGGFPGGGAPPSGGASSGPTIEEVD

B1: wt (JD‐G/FR) (domain or fragment)
chain: not shown
With B1, the binding result is given as “binds”.
